Assay results from paper PMC4778762, “Acetylation of Lysine 201 Inhibits the DNA-Binding Ability of PhoP to Regulate Salmonella Virulence”.

Assays:
[1] = biological target: T1, PhoP K201A K201A (Salmonella enterica serovar Typhimurium) (UniProt D0ZV90); experiment: EMSA; conditions: EMSA: 25 mM Tris-HCl pH 8.0, 50 mM KCl, 0.5 mM EDTA, 10% glycerol, 37 C 30 min, gel at 4 C; SPR: Biacore 2000, streptavidin chip, buffer not given
T1 sequence: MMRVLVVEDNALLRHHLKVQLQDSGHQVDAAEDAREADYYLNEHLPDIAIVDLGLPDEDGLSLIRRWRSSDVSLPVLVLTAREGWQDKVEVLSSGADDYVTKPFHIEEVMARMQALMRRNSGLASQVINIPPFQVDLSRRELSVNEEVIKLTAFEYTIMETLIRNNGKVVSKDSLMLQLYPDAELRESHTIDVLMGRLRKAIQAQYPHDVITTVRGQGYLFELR

[2] = biological target: T2, PhoP K201Q K201Q (Salmonella enterica serovar Typhimurium) (UniProt D0ZV90); experiment: EMSA; conditions: EMSA: 25 mM Tris-HCl pH 8.0, 50 mM KCl, 0.5 mM EDTA, 10% glycerol, 37 C 30 min, gel at 4 C; SPR: Biacore 2000, streptavidin chip, buffer not given
T2 sequence: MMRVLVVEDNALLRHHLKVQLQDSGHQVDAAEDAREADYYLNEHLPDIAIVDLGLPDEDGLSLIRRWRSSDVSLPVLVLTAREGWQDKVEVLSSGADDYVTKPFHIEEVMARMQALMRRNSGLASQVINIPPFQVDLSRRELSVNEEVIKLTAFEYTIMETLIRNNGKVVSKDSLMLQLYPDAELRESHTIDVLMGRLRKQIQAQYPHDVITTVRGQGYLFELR

[3] = biological target: T3, PhoP K201R K201R (Salmonella enterica serovar Typhimurium) (UniProt D0ZV90); experiment: EMSA; conditions: EMSA: 25 mM Tris-HCl pH 8.0, 50 mM KCl, 0.5 mM EDTA, 10% glycerol, 37 C 30 min, gel at 4 C; SPR: Biacore 2000, streptavidin chip, buffer not given
T3 sequence: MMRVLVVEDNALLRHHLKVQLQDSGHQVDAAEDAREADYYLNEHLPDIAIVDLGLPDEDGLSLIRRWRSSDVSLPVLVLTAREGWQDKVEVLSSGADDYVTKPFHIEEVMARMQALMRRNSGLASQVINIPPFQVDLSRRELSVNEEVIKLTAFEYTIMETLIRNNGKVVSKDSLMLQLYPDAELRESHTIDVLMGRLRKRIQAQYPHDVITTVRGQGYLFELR

[4] = biological target: T4, PhoP WT (Salmonella enterica serovar Typhimurium) (UniProt D0ZV90); experiment: EMSA; conditions: EMSA: 25 mM Tris-HCl pH 8.0, 50 mM KCl, 0.5 mM EDTA, 10% glycerol, 37 C 30 min, gel at 4 C; SPR: Biacore 2000, streptavidin chip, buffer not given
T4 sequence: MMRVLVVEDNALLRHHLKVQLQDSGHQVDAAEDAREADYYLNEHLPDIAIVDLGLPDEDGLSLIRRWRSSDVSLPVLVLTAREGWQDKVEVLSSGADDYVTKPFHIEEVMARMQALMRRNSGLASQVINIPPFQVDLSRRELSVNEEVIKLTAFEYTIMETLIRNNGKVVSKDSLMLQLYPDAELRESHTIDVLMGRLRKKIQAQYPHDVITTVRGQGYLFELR

PhoP WT = PhoP WT (Salmonella enterica serovar Typhimurium, UniProt D0ZV90 1-224); experiment: SPR; 0.3-1 uM PhoP; response 2.3-fold (0.6 uM) and 4.0-fold (1 uM) of that at 0.3 uM; EMSA: 25 mM Tris-HCl pH 8.0, 50 mM KCl, 0.5 mM EDTA, 10% glycerol, 37 C 30 min, gel at 4 C; SPR: Biacore 2000, streptavidin chip, buffer not given; conditions: protein: recombinant; tags: C-terminal 6xHis; chain copies: 2; label: 5'-biotin on strand 1; blunt

Molecule: ATCCTCTACAACCAGTACGCGCATCATCTCTTCTCCCTTGTGTTAACAATAAGAACAGTCTAGCGTTGATTATGGTGCTTTGGGGATAAACAGTTAATAAACCAGACAAATAGTCACCCTCTTTCTGAAGAAAAGAGGGTGAGGCAGGCATTATTTAAGTTCGTCGACCAGAGTCACAGCGCGA (double strand) [phoP promoter 184 bp]
- binding [1]: binds more weakly
- binding [2]: binds more weakly
- binding [3]: binds
- binding [4]: binds

B1: PhoP box of phoP promoter (dsDNA)
DNA 1: GGGGTCTGGTTTATTAACTGTTTATCCGGGG
DNA 2: CCCCGGATAAACAGTTAATAAACCAGACCCC
- binding result (PhoP WT): binds
